The target of this assay is T1, non-cleaved SNAP-25206 (UniProt P60880 1-206).
T1 construct: range 1-206; also called SNAP-25206 uncleaved substrate
As to the kind of experiment: ELISA and Western blots.

T1 sequence (P60880 whole entry): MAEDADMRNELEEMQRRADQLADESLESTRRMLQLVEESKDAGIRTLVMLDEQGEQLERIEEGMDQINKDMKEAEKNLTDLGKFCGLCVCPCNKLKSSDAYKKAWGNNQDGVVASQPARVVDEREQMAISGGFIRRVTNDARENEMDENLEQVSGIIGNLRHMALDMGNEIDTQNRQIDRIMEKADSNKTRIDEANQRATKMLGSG

B1: mouse monoclonal antibody produced by hybridoma pCNEI 32-7-1, 3614-000 (antibody, V domains shown)
VH: EVQLVESGGGLVQPKGSLKLSCAASGYTFNTYAVNWVRQAPGKGLEWVARIRSKSYNYVTYYADSVKDRFTISRDDSQSMLYLQMNNLKTEDTAMYYCVKGNGNYVSFAYWGQGTLVTVSA
VL: QLVLTQSSSASFSLGASAKLTCTLSSQHNTYTIEWYQQQPLKPPKYVMELKKDGSHSTGDGIPDRFSGSSSGADRYLSISNIQPEDEAIYICGVGDTIKEQFVYVFGGGTKVTVL
notes: also called monoclonal antibody of the invention; DSM ACC3261
As for B1, the binding result is recorded as “no binding”.
